# Experimental data as given in PMC8882475.
# Biological target: FcRn (UniProt P55899)
# Experiment: BLI
substance,measurement,value
"SI–F019, huACE2 (18–615) - IgG1 Fc null (from UniProt Q9BYF1-1 18-615) (Fc fusion)",Kd,37.6 nM
